The results in this text go back to patent US20190345535.

Where “and” joins values, the source holds several entries; their conditions need not be identical. Equal entries are not always repeated.

Series [1] relates to GFP^2-Pflu1-RLuc2 fusion protein (Pflu sensor 1).
For series [2], the system named is GFP^2-Pflu-H1-RLuc2 fusion protein.
The test system of series [3] is GFP^2-Pflu2-RLuc2 fusion protein (Pflu sensor 2).
The subject of series [4] is GFP^2-plas1-RLuc2 fusion protein (BRET^2 plasmin sensor).
Series [5] deals with GFP^2-Pflu-H2-RLuc2 fusion protein.
The test system of series [6] is GFP^2-Pflu-H3-RLuc2 fusion protein.
Series [7] has as its system GFP^2-Pflu3-RLuc2 fusion protein (Pflu sensor 3).
The subject of series [8] is GFP^2-Pflu-H4-RLuc2 fusion protein.

Take “crude bacterial protease from Pseudomonas fluorescens strain 117”: in series [1], the “Reduction in the BRET ratio, 1 nM protease, UHT milk, 10 minutes” value is listed as 71.2% reduction with the bacterial protease from strain 117 and the “Reduction in the BRET ratio, 1 nM protease, buffer, 10 minutes” value is 95% reduction in the BRET ratio.
For “crude bacterial protease from Pseudomonas fluorescens strain 65”, in series [2], the “BRET^2 response to 1 nM bacterial protease in buffer, 10 minutes” value (from here on “BRET^2 response … 10 minutes”) is on record as 49.5%; the Bacterial protease response (%), BRET^2, 1 nM in UHT milk was determined as 6.7%; the Selectivity (ratio of Bacterial protease response to Plasmin response), UHT milk was found to be 1.3. In addition, in series [3], the Linear range (10%-90% BRET^2 response), 50% full fat UHT milk, protease concentration by BSA standard was 6.7 nM and 13.8 nM; the Selectivity for bacterial protease over human plasmin was 353 fold; the Selectivity for bacterial protease over human plasmin, protease concentration by BSA standard stood at 30 fold. Besides, in series [4], the Linear range (10%-90% BRET^2 response), 50% full fat UHT milk was 10 nM and 90 nM; the Linear range (10%-90% BRET^2 response), 50% full fat UHT milk, protease concentration by BSA standard was 116 nM and 1040 nM; the Selectivity for bacterial protease over bovine plasmin turned out to be 2 fold; the Selectivity for bacterial protease over bovine plasmin, protease concentration by BSA standard stood at 0.2 fold. Moreover, in series [4], the Selectivity for bacterial protease over human plasmin worked out at 0.1 fold and the Selectivity for bacterial protease over human plasmin, protease concentration by BSA standard came out at 0.01 fold. In series [5], the “BRET^2 response … 10 minutes” value amounted to 31.9%; the Bacterial protease response (%), BRET^2, 1 nM in UHT milk was 6.6%; the Selectivity (ratio of Bacterial protease response to Plasmin response), UHT milk was found to be 0.8. In addition, in series [6], the “BRET^2 response … 10 minutes” value is reported as 89.7%; the Bacterial protease response (%), BRET^2, 1 nM in UHT milk came out at 36.3%; the “More responsive to 1 nM bacterial protease compared to Pflu H1 sensor, buffer” value is on record as 82%; the “More responsive to 1 nM bacterial protease compared to Pflu H2 sensor, buffer” value is recorded as 182%. Moreover, in series [6], the “More responsive to 1 nM bacterial protease compared to Pflu H4 sensor, buffer” value worked out at 39%; the Selectivity (ratio of Bacterial protease response to Plasmin response), UHT milk amounted to 40.3; the Selectivity for bacterial protease over bovine plasmin, protease concentration by BSA standard came out at 32 fold; the Selectivity for bacterial protease over bovine plasmin, raw milk came to 376 fold. In series [1], the “Reduction in the BRET ratio, 1 nM protease, UHT milk, 10 minutes” value was 80.6% reduction in the BRET ratio with strain 65 bacterial proteases; the “Reduction in the BRET ratio, 1 nM protease, buffer, 10 minutes” value is reported as 95% reduction in the BRET ratio; the Selectivity for bacterial protease over bovine plasmin turned out to be 238 fold; the Selectivity for bacterial protease over bovine plasmin, protease concentration by BSA standard came out at 20 fold. In addition, in series [1], the Selectivity for bacterial protease over human plasmin was determined as 174 fold; the Selectivity for bacterial protease over human plasmin, protease concentration by BSA standard came to 15 fold; the “Sensitivity to bacterial proteases relative to the plasmin sensor, raw milk, 10 minute incubation” value is given as 10× more sensitive. In series [7], this substance gave a Selectivity for bacterial protease over human plasmin of 563 fold and a Selectivity for bacterial protease over human plasmin, protease concentration by BSA standard of 48.5 fold. In addition, in series [8], the “BRET^2 response … 10 minutes” value came to 64.5%; the Bacterial protease response (%), BRET^2, 1 nM in UHT milk stood at 17.1%; the Selectivity (ratio of Bacterial protease response to Plasmin response), UHT milk worked out at 2.7.
